Results on 7 molecules are retold here after JP2005320353A (dated 2005).

Numbering of substitutions follows the chain as printed.

The test addresses T1, ヒトPTHrP(1-34) (human).
T1 construct: Synthetic peptide, bought (Peninsula; ペプチド研究所); Coated on the plate in the ELISA; also called human parathyroid hormone related peptide (1-34)
Nature of the test: ELISA on plate-coated human PTHrP(1-34). (In an ELISA, binding on a coated surface is turned into a signal by an enzyme label.)

B1: ヒト型化#23-57-137-1抗体 (H鎖バージョン"a"、L鎖バージョン"j") (antibody, IgG1, V domains shown)
VH: QVQLVESGGGVVQPGRSLRLSCAASGFTFSSYGMSWVRQAPGKGLEWVATISSGGSYTYYPDSVKGRFTISRDNSKNTLYLQMNSLRAEDTAVYYCARQTTMTYFAYWGQGTLVTVSS
VL: QLVLTQSPSASASLGASVKLTCTLSSQHSTYTIEWYQQQPEKGPKYLMDLKQDGSHSTGDGIPDRFSGSSSGAERYLTISSLQSEDEADYYCGVGDTIKEQFVYVFGGGTKLTVLG
notes: Human Cγ1 (IgG1) and human lambda C region; Expressed in COS-7 cells; also called hMBC1HcDNA/pCOS1 + hMBC1Ljλ/pCOS1
For B1, the binding result is on record as “binds”.

B2: ヒト型化#23-57-137-1抗体 (H鎖バージョン"a"、L鎖バージョン"m") (antibody, IgG1, V domains shown)
VH: B1 VH
VL: B1 VL with K45R
notes: Human Cγ1 (IgG1) and human lambda C region; Expressed in COS-7 cells; also called hMBC1HcDNA/pCOS1 + hMBC1Lmλ/pCOS1
On to B2, for which the binding result is on record as “binds”.

B3: ヒト型化#23-57-137-1抗体 (H鎖バージョン"a"、L鎖バージョン"t") (antibody, IgG1, V domains shown)
VH: B1 VH
VL: B1 VL with K45R, L47V, Y91I
notes: Human Cγ1 (IgG1) and human lambda C region; Expressed in COS-7 cells; also called hMBC1HcDNA/pCOS1 + hMBC1Ltλ/pCOS1
As for B3, the binding result is “binds”.

B4: ヒト型化#23-57-137-1抗体 (H鎖バージョン"a"、L鎖バージョン"o") (antibody, IgG1, V domains shown)
VH: B1 VH
VL: B1 VL with K45R, L47V
notes: Human Cγ1 (IgG1) and human lambda C region; Expressed in COS-7 cells; also called hMBC1HcDNA/pCOS1 + hMBC1Loλ/pCOS1
In the case of B4, the binding result is “binds”.

B5: ヒト型化H鎖バージョン"a"とキメラL鎖を組み合わせた抗体 (antibody, V domains shown)
VH: B1 VH
VL: QLVLTQSSSASFSLGASAKLTCTLSSQHSTYTIEWYQQQPLKPPKYVMDLKQDGSHSTGDGIPDRFSGSSSGADRYLSISNIQPEDEAMYICGVGDTIKEQFVYVFGGGTKVTVLG
notes: Humanised H chain version a with human Cγ1; The chimeric L chain has the mouse V region
As for B5, the binding result was “binds”.

B6: ヒト型化#23-57-137-1抗体 (H鎖バージョン"a"、L鎖バージョン"q") (antibody, IgG1, V domains shown)
VH: B1 VH
VL: B1 VL with Y91I
notes: Human Cγ1 (IgG1) and human lambda C region; Expressed in COS-7 cells for the ELISA; also made in CHO cells; also called hMBC(q); hMBC1HcDNA + hMBC1Lqλ
Turning to B6, the binding result is reported as “binds”.

B7: ヒト型化#23-57-137-1抗体 (H鎖バージョン"a"、L鎖バージョン"l") (antibody, IgG1, V domains shown)
VH: B1 VH
VL: B1 VL with L47V
notes: Human Cγ1 (IgG1) and human lambda C region; Expressed in COS-7 cells; also called hMBC1HcDNA/pCOS1 + hMBC1Llλ/pCOS1
Turning to B7, the binding result was “binds”.
